From patent publication US20250388628A1 (Genentech, published 2025)
Where a chain is given by its changes, count along the chain named. In names and notes the source's numbering stands.

B1: AAV9 VP3 VLP A273N, A472H, E500P (other)
VP3: MASGGGAPVADNNEGADGVGSSSGNWHCDSQWLGDRVITTSTRTWALPTYNNHLYKQISNSTSGGSSNDNNYFGYSTPWGYFDFNRFHCHFSPRDWQRLINNNWGFRPKRLNFKLFNIQVKEVTDNNGVKTIANNLTSTVQVFTDSDYQLPYVLGSAHEGCLPPFPADVFMIPQYGYLTLNDGSQAVGRSSFYCLEYFPSQMLRTGNNFQFSYEFENVPFHSSYAHSQSLDRLMNPLIDQYLYYLSKTINGSGQNQQTLKFSVAGPSNMHVQGRNYIPGPSYRQQRVSTTVTQNNNSPFAWPGASSWALNGRNSLMNPGPAMASHKEGEDRFFPLSGSLIFGKQGTGRDNVDADKVMITNEEEIKTTNPVATESYGQVATNHQSAQAQAQTGWVQNQGILPGMVWQDRDVYLQGPIWAKIPHTDGNFHPSPLMGGFGMKHPPPQILIKNTPVPADPPTAFNKDKLNSFITQYSTGQVSVEIEWELQKENSKRWNPEIQYTSNYYKSNNVEFAVNTEGVYSEPRPIGTRYLTRNL
notes: VP3-only VLP
B2: AAV9 VP3 VLP A273N/Q387K/E500R (other)
VP3: B1 VP3 with Q185K, H270A, P298R
notes: VP3-only VLP; also called AN.QK.ER
B3: AAV9 VP3 VLP A273N, Q387K, A472H, E500P (other)
VP3: B1 VP3 with Q185K
notes: VP3-only VLP
B4: AAV9 VP3 VLP I451Y, S454I, E500P, P504T (other)
chain: B1 VP3 with N71A, I249Y, S252I, H270A, P302T
modifications: One VP3 subunit is given; in the assay it stood assembled as a VP3-only icosahedral VLP capsid.
notes: VP3-only VLP
B5: AAV9 VP3 VLP Q387K, A472H, E500P (other)
VP3: B1 VP3 with N71A, Q185K
notes: VP3-only VLP
B6: AAV9 VP3 VLP I451Y, S454I, E500P (other)
chain: B1 VP3 with N71A, I249Y, S252I, H270A
notes: VP3-only VLP
B7: AAV9 VP3 VLP I451Y, S454I, E500P, P504I (other)
chain: B1 VP3 with N71A, I249Y, S252I, H270A, P302I
modifications: One VP3 subunit is given; in the assay it stood assembled as a VP3-only icosahedral VLP capsid.
notes: VP3-only VLP
B8: AAV2 VP3 VLP A593E (other)
chain: MATGSGAPMADNNEGADGVGNSSGNWHCDSTWMGDRVITTSTRTWALPTYNNHLYKQISSQSGASNDNHYFGYSTPWGYFDFNRFHCHFSPRDWQRLINNNWGFRPKRLNFKLFNIQVKEVTQNDGTTTIANNLTSTVQVFTDSEYQLPYVLGSAHQGCLPPFPADVFMVPQYGYLTLNNGSQAVGRSSFYCLEYFPSQMLRTGNNFTFSYTFEDVPFHSSYAHSQSLDRLMNPLIDQYLYYLSRTNTPSGTTTQSRLQFSQAGASDIRDQSRNWLPGPCYRQQRVSKTSADNNNSEYSWTGATKYHLNGRDSLVNPGPAMASHKDDEEKFFPQSGVLIFGKQGSEKTNVDIEKVMITDEEEIRTTNPVATEQYGSVSTNLQRGNRQAATEDVNTQGVLPGMVWQDRDVYLQGPIWAKIPHTDGHFHPSPLMGGFGLKHPPPQILIKNTPVPANPSTTFSAAKFASFITQYSTGQVSVEIEWELQKENSKRWNPEIQYTSNYNKSVNVDFTVDTNGVYSEPRPIGTRYLTRNL
notes: VP3-only VLP
B9: AAV2 VP3 VLP T592D (other)
chain: B8 chain with T390D, E391A
notes: VP3-only VLP
B10: AAV receptor (AAVR) fragment comprising the domains PKD1 and PKD2 (residues V305-V499) (receptor)
chain: VIKELVVSAGESVQITLPKNEVQLNAYVLQEPPKGETYTYDWQLITHPRDYSGEMEGKHSQILKLSKLTPGLYEFKVIVEGQNAHGEGYVNVTVKPEPRKNRPPIAIVSPQFQEISLPTTSTVIDGSQSTDDDKIVQYHWEELKGPLREEKISEDTAILKLSKLVPGNYTFSLTVVDSDGATNSTTANLTVNKAV
B11: AAV2 VP3 VLP T592D/A593E (other)
chain: B8 chain with T390D
notes: VP3-only VLP

Experiments:
[1] = molecular target: AAV receptor (AAVR) on HEK293 cells (Homo sapiens (Human)) (UniProt Q8IZA0); assay: cell-based or functional assay
AAV receptor (AAVR) on HEK293 cells (Homo sapiens (Human)), sequence (Q8IZA0 whole entry): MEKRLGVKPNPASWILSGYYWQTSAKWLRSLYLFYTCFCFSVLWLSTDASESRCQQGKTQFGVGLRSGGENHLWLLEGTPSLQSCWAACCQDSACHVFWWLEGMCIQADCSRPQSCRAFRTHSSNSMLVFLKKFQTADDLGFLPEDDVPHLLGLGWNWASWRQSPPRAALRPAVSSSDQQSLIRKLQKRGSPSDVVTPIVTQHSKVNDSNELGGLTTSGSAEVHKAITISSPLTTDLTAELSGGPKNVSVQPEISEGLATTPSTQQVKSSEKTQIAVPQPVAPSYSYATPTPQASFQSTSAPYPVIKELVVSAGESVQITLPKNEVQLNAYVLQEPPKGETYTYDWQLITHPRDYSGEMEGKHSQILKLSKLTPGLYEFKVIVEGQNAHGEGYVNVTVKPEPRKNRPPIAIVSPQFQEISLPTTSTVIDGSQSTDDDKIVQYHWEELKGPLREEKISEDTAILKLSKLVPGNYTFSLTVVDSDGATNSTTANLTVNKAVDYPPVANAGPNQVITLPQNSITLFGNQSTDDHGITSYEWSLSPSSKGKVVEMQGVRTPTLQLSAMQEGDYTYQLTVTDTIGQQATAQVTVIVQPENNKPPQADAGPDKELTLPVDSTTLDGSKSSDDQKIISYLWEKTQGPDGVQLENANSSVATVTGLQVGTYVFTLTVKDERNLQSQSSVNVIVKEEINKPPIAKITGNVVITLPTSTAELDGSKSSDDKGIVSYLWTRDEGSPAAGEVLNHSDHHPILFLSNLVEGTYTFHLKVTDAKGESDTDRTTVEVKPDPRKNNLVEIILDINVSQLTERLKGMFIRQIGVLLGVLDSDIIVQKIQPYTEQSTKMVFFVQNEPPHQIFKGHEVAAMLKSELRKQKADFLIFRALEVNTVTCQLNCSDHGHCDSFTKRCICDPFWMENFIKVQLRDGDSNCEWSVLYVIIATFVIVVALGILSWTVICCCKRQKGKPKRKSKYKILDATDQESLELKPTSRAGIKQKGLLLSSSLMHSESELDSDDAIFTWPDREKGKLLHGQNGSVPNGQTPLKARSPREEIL

[2] = molecular target: B10; assay: SPR; captured AAV9 VP3 VLP, AAVR analyte
[3] = molecular target: B10; assay: SPR; against wild-type VLP
[4] = molecular target: B10; assay: SPR, single replicate; captured AAV9 VP3 VLP, AAVR analyte
[5] = molecular target: B10; assay: SPR, three replicates; affinity against wild-type AAV9 VLP
[6] = molecular target: B10; assay: SPR, three replicates; captured AAV9 VP3 VLP, AAVR analyte
[7] = molecular target: B10; assay: SPR, single replicate; affinity against wild-type AAV9 VLP
[8] = molecular target: B10; assay: SPR; affinity against wild-type AAV2 VLP
AAV2 VP3 VLP T592D/A593E = molecular target: B11; assay: SPR; captured AAV2 VP3 VLP, AAVR analyte
AAV2 VP3 VLP T592D = molecular target: B9; assay: SPR; captured AAV2 VP3 VLP, AAVR analyte
AAV2 VP3 VLP A593E = molecular target: B8; assay: SPR; captured AAV2 VP3 VLP, AAVR analyte
Wild-type AAV2 VP3 VLP = molecular target: T1, Wild-type AAV2 VP3 VLP (adeno-associated virus serotype 2 (AAV2), UniProt P03135 203-735); assay: SPR; captured AAV2 VP3 VLP, AAVR analyte
T1 construct: VP3-only VLP; also called Wild-type AAV2 VLP (WT); WT

Molecule: AAV9 comprising a Q387K amino acid substitution mutation (full AAV with VP1, VP2 and VP3)
- Expression of a transgene (GFP) in transduced HEK293 cells [1]: 3 fold

Molecule: B1
- Kd [2]: 5.14 nM
- koff [2]: 0.000236 s⁻¹
- kon [2]: 45900 M⁻¹ s⁻¹
- KD Fold Change [3]: 455 fold

Molecule: B2
- Kd [4]: 80 nM
- koff [4]: 0.000962 s⁻¹
- kon [4]: 11800 M⁻¹ s⁻¹
- Fold change vs WT [5]: 117 fold
- Kd [2]: 20 nM
- koff [2]: 0.000667 s⁻¹
- kon [2]: 33300 M⁻¹ s⁻¹
- KD Fold Change [3]: 117 fold
- Kd [6]: 20 nM
- koff [6]: 0.000667 s⁻¹
- kon [6]: 33300 M⁻¹ s⁻¹
- Fold change vs WT [7]: 53 fold

Molecule: B3
- Kd [2]: 0.421 nM
- koff [2]: 3.96e-05 s⁻¹
- kon [2]: 94000 M⁻¹ s⁻¹
- KD Fold Change [3]: 5560 fold

Molecule: B4
- KD Fold Change [3]: 146 fold

Molecule: B5
- Kd [2]: 0.694 nM
- koff [2]: 0.000338 s⁻¹
- kon [2]: 487000 M⁻¹ s⁻¹
- KD Fold Change [3]: 3370 fold

Molecule: B6
- KD Fold Change [3]: 217 fold

Molecule: B7
- KD Fold Change [3]: 214 fold

Molecule: B8
- Fold change vs WT [8]: ~4 fold

Molecule: B9
- Fold change vs WT [8]: 5 fold

Molecule: B10
- Kd (AAV2 VP3 VLP T592D/A593E): 330 nM
- koff (AAV2 VP3 VLP T592D/A593E): 0.00652 s⁻¹
- kon (AAV2 VP3 VLP T592D/A593E): 19600 M⁻¹ s⁻¹
- Kd (AAV2 VP3 VLP T592D): 420 nM
- koff (AAV2 VP3 VLP T592D): 0.00797 s⁻¹
- kon (AAV2 VP3 VLP T592D): 19100 M⁻¹ s⁻¹
- Kd (AAV2 VP3 VLP A593E): 520 nM
- koff (AAV2 VP3 VLP A593E): 0.0111 s⁻¹
- kon (AAV2 VP3 VLP A593E): 21600 M⁻¹ s⁻¹
- Kd (Wild-type AAV2 VP3 VLP): 2100 nM
- koff (Wild-type AAV2 VP3 VLP): 0.0311 s⁻¹
- kon (Wild-type AAV2 VP3 VLP): 15100 M⁻¹ s⁻¹

Molecule: B11
- Fold change vs WT [8]: ~6 fold
